According to paper PMC2172333 (The Journal of Cell Biology, 2004):

T1: MBP-Bfa1 (yeast, UniProt P47113 1-574)
T1 sequence: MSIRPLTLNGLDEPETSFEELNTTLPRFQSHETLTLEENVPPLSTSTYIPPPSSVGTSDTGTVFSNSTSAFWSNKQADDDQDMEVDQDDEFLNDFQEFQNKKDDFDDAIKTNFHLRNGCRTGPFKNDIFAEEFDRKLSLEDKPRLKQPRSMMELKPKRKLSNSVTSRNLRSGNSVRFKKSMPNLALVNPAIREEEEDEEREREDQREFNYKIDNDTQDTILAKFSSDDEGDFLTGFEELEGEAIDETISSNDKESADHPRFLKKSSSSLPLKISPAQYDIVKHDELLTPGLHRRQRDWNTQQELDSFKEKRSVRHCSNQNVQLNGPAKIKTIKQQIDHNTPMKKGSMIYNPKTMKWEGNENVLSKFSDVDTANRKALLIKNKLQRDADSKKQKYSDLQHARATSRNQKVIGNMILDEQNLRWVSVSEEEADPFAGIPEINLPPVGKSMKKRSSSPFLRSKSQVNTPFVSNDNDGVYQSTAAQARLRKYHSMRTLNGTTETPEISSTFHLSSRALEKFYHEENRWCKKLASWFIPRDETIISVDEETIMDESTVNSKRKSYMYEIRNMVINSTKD

T2: MBP-Bub2 (yeast, UniProt P26448 1-306)
T2 sequence: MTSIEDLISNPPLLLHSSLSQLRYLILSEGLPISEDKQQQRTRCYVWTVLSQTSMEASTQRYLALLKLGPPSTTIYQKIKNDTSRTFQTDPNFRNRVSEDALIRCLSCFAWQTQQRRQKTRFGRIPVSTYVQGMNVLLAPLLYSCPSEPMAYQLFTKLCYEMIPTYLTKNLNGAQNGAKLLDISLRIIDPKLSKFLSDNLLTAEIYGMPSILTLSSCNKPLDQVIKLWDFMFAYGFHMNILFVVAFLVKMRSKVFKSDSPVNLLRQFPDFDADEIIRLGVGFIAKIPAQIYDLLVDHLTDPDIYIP

T3: NH2-terminal domain of Net1 (Net1 1-600) (yeast, UniProt P47035 1-600)
T3 sequence: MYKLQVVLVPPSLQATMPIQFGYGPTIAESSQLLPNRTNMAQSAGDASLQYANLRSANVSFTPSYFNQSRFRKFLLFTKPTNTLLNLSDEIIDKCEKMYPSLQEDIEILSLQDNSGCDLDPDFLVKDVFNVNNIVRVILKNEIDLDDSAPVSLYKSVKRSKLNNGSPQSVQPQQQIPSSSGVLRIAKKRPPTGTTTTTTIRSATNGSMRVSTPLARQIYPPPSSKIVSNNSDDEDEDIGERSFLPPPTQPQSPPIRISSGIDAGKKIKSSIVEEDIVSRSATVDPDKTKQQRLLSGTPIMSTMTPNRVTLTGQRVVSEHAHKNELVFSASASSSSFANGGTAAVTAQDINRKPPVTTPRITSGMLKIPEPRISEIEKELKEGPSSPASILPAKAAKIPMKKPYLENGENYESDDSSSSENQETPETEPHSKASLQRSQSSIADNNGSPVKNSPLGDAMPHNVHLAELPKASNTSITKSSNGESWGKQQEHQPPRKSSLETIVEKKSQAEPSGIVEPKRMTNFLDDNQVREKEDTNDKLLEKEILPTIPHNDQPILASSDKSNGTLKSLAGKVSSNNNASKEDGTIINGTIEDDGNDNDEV

B1: GST-Bub2 (natural protein)
chain: T2 sequence
B2: His6-Tem1 (natural protein)
chain: MATPSTGANNSIPAVRNQVEVQVGLVGDAQVGKTSLMVKYVQNIYDKEYTQTLGVNFLKRKVSIRSTDIIFSIMDLGGQREFINMLPIATVGSSVIIFLFDLTRPETLSSIKEWYRQAYGLNDSAIPILVGTKYDLLIDLDPEYQEQISRTSMKYAQVMNAPLIFCSTAKSINIQKIFKIALAKIFNLTLTIPEINEIGDPLLIYKHLGGQQHRHHNKSQDRKSHNIRKPSSSPSSKAPSPGVNT
B3: MBP-Cdc14 (natural protein)
chain: MRRSVYLDNTIEFLRGRVYLGAYDYTPEDTDELVFFTVEDAIFYNSFHLDFGPMNIGHLYRFAVIFHEILNDPENANKAVVFYSSASTRQRANAACMLCCYMILVQAWTPHQVLQPLAQVDPPFMPFRDAGYSNADFEITIQDVVYGVWRAKEKGLIDLHSFNLESYEKYEHVEFGDFNVLTPDFIAFASPQEDHPKGYLATKSSHLNQPFKSVLNFFANNNVQLVVRLNSHLYNKKHFEDIGIQHLDLIFEDGTCPDLSIVKNFVGAAETIIKRGGKIAVHCKAGLGRTGCLIGAHLIYTYGFTANECIGFLRFIRPGMVVGPQQHWLYLHQNDFREWKYTTRISLKPSEAIGGLYPLISLEEYRLQKKKLKDDKRVAQNNIEGELRDLTMTPPSNGHGALSARNSSQPSTANNGSNSFKSSAVPQTSPGQPRKGQNGSNTIEDINNNRNPTSHANRKVVIESNNSDDESMQDTNGTSNHYPKVSRKKNDISSASSSRMEDNEPSATNINNAADDTILRQLLPKNRRVTSGRRTTSAAGGIRKISGSIKK

Columns and labels:
Experiment in all cases: pull-down
MBP-Bfa1 = target: T1, MBP-Bfa1
MBP-Bub2 = target: T2, MBP-Bub2
[1] = target: T3, NH2-terminal domain of Net1 (Net1 1-600)

Binder	binding result (MBP-Bfa1)	binding result (MBP-Bub2)	binding result [1]
B1	binds		
B2	binds	binds	
B3			binds
